Source: patent publication US20190248887A1

Molecular target: synthetic peptide representing amino acids 24 through 39 of FXYD5 (Seq ID No. 1), coupled to maleimide activated BSA (Homo sapiens)
Experiment: chemiluminescent ELISA, BSA-coupled peptide 24-39 coated, streptavidin-HRP detection; printed as relative binding affinity

“L15-linker-biotin conjugate (goat polyclonal anti-FXYD5 L15, sc-30603, coupled via SM(PEG)24 to biotin) (antibody)” was tested. Which EC50 did it give?
The EC50 was 38.2 nM.

“N20-linker-biotin conjugate (goat polyclonal anti-FXYD5 N20, sc-30602, coupled via SM(PEG)24 to biotin) (antibody)” was tested. Which EC50 did it give?
The EC50 was 3.75 nM.
